Measured values from paper PMC6885551.

Target: Salmonella FraB deglycase, wild type (Salmonella enterica)
Assay: native MS

Kd: 0.031 to 0.063 µM
Substance: Salmonella FraB deglycase, wild type (enzyme)
